The values below come from patent publication US20240109955A1.

Assay in all cases: cell-based or functional assay
For test [1], the target named is SARS-CoV-2 Omicron XBB spike protein (SARS-CoV-2).
Test [2] concerns the target SARS-CoV-2 Omicron BF.7 spike protein (SARS-CoV-2).
Test [3] has as its target SARS-CoV-2 Omicron BQ.1 spike protein (SARS-CoV-2).
The target of test [4] is SARS-CoV-2 Omicron BQ.1.1 spike protein (SARS-CoV-2).
Test [5] deals with SARS-CoV-2 Omicron BA.4/5 spike protein (SARS-CoV-2).
For test [6], the target named is SARS-CoV-2 Omicron BA.4.6 spike protein (SARS-CoV-2).
Test [7] concerns the target SARS-CoV-2 Omicron BA.2.75.2 spike protein (SARS-CoV-2).

B1: MX1041 (bispecific antibody)
chain: QTVVTQEPSFSVSPGGTVTLTCGLSSGSVSTAYFPSWYQQTPGQAPRTLIYGTNTRSSGVPDRFSGSILGNKAALTITGAQADDESDYYCVLYMGRGIVVFGGGTKLTVLGGSSGEIVLTQSPGTLSLSPGETATLSCRASQSFSSDLAWYQQKPGQAPRLLIYGASSRATGIPDRFSGSGSGTDFTLTISRLEPADFAVYYCQQYGSSPPVTFGGGTKVEIKGGGGSGGSGSGGGGSASGSGEVQLVESGGGLIQPGGSLRLSCAASGVIVSYNYMNWVRQAPGKGLEWVSVIYSGGSTFYADSVRGRFTISRDNSKNTLYLQMNSLRAEDTAVYYCARDLGPAGAFDIWGLGTMVTVSSGGSSGQVQLVESGGGVVQPGRSLRLSCAASGFTLSSYGMHWVRQAPGKGLEWVAVISYDGSNKYYVDSVKGRFTISRDNSKNTLYLQMNSLRAEDTAVYYCRWAYWELLPDYYYGMDVWGQGTTVTVSSASGGSGDKTHTCPPCPAPELLGGPSVFLFPPKPKDTLMISRTPEVTCVVVDVSHEDPEVKFNWYVDGVEVHNAKTKPREEQYNSYVVSVLTVLHQDWLNGKEYKCKVSNKALPAPIEKTISKAKGQPREPQVYTLPPSRDELTKNQVSLTCLVKGFYPSDIAVEWESNGQPENNYKTTPPVLDSDGSFFKKLTVDKSRWQQGNVFSCSVLHEALHSHYTQKSLSLSPG
For the molecule B1, the IC50, pseudovirus neutralization in test [1] is 0.0691 µg/mL; in test [2] it was 0.00835 µg/mL; in test [3], 0.0429 µg/mL; in test [4] it was 0.0493 µg/mL; in test [5] it was 0.012 µg/mL; in test [6], 0.0257 µg/mL. The molecule further showed an IC50, pseudovirus neutralization in test [7] of 0.0129 µg/mL. For the same molecule, the IC80, pseudovirus neutralization in test [1] came to 0.398 µg/mL; in test [2], 0.0304 µg/mL; in test [3] it was 0.188 µg/mL; in test [4], 0.11 µg/mL; in test [5], 0.0262 µg/mL; in test [6], 0.0671 µg/mL. This molecule also gave an IC80, pseudovirus neutralization in test [7] of 0.0362 µg/mL.
